Reference: patent US20230340146A1 (US Dept. of Health and Human Services, published 2023)

Tests used:
[1] = target: T1, human GPC1 on cells (T3M4, KLM1, H8, 2B9) (human) (UniProt P35052); test: flow cytometry on T3M4 pancreatic cancer cells, non-specific control IgG, goat anti-mouse IgG-PE
T1 sequence (looked up): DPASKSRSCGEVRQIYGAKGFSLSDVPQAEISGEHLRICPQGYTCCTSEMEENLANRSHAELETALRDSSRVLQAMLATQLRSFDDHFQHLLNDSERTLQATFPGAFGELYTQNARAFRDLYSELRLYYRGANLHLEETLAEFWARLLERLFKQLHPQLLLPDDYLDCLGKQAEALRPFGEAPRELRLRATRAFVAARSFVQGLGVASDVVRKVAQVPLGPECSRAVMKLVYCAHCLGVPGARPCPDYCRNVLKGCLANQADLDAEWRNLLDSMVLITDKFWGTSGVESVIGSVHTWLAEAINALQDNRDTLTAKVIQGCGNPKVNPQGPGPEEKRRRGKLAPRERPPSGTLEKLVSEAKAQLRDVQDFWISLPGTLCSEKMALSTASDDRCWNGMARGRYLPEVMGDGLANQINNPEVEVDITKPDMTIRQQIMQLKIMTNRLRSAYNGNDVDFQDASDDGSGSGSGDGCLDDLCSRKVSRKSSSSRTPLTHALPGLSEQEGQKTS

[2] = target: T2, recombinant human GPC1-hFc protein (human, UniProt P35052 24-530, limits assumed); test: Octet (BLI), His-tagged D4 on Ni-NTA biosensor, serially diluted human GPC1-hFc in solution
T2 construct: Analyte in the Octet measurement of D4; not shown: human Fc (hFc)
T2 sequence (looked up): T1 sequence (looked up)
Protocol: (§1) Data analysis was performed using the FortéBio analysis software.

human glypican-4 (GPC4) [3] = target: T3, human glypican-4 (GPC4) (human, UniProt O75487 19-529, limits assumed); test: ELISA on human GPC4, anti-FLAG detection
T3 construct: Named through 'human GPC1 through GPC6' in the methods; also called human GPC4; other human glypican members
T3 sequence (looked up): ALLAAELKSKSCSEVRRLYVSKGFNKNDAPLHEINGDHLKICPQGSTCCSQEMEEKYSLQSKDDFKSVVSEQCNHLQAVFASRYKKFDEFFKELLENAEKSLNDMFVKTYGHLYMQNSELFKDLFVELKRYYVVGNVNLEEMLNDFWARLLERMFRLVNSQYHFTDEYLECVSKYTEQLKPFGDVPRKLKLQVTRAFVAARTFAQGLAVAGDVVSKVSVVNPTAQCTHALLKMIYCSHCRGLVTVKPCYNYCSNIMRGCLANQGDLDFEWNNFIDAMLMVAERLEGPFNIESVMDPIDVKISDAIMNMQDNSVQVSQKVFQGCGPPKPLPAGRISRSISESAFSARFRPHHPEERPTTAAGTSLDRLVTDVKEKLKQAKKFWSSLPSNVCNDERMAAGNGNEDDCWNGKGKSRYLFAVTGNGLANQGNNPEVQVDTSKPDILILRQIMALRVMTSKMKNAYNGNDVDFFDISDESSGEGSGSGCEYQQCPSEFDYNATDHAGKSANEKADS
Protocol: (§2) Mouse hybridoma supernatant containing 1 µg/ml of each mAb was incubated with plates coated with human GPC1 through GPC6 purchased from R&D Systems. Binding was detected with a goat anti-mouse IgG conjugated with horseradish peroxidase (HRP) (Jackson ImmunoResearch). […] Binding was detected with an anti-FLAG HRP-conjugated antibody (Sigma-Aldrich). […] Recombinant human GPC1-hFc protein at concentrations of 5 µg/ml and 1 µg/ml were then added to the plate.

GPC1 peptide 14 = target: T4, GPC1 peptide 14; test: ELISA on peptides of the GPC1 peptide library
T4 peptide: FRDLYSELRLYYRGANLH

GPC1 peptide 15 = target: T5, GPC1 peptide 15; test: ELISA on peptides of the GPC1 peptide library
T5 peptide: LYYRGANLHLEETLAEFW

mouse GPC1 protein = target: T6, mouse GPC1 protein (mouse, UniProt Q9QZF2 24-529, limits assumed); test: monoclonal phage ELISA on plate-coated mouse GPC1
T6 sequence (looked up): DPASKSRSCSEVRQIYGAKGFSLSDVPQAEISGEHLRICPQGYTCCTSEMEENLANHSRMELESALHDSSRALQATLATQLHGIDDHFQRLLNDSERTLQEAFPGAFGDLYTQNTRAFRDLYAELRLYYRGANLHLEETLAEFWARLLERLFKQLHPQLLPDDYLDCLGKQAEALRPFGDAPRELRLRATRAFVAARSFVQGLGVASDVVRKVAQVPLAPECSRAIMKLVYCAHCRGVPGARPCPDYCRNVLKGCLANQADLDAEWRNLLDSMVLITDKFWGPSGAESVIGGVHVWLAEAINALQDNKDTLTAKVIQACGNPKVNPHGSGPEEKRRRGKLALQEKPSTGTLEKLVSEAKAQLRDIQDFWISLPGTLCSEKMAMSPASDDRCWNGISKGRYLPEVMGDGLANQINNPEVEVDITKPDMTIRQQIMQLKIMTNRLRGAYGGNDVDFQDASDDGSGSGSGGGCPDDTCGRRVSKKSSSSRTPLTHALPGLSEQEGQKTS

human glypican-3 (GPC3) [4] = target: T7, human glypican-3 (GPC3) (human, UniProt P51654 25-559, limits assumed); test: monoclonal phage ELISA on plate-coated glypicans
T7 construct: Named through 'human GPC1 through GPC6' in the methods; also called human GPC3; other human glypican members

human glypican-2 (GPC2) [5] = target: T8, human glypican-2 (GPC2) (human, UniProt Q8N158 24-554, limits assumed); test: monoclonal phage ELISA on plate-coated glypicans
T8 construct: Named through 'human GPC1 through GPC6' in the methods; also called human GPC2; other human glypican members
T8 sequence (looked up): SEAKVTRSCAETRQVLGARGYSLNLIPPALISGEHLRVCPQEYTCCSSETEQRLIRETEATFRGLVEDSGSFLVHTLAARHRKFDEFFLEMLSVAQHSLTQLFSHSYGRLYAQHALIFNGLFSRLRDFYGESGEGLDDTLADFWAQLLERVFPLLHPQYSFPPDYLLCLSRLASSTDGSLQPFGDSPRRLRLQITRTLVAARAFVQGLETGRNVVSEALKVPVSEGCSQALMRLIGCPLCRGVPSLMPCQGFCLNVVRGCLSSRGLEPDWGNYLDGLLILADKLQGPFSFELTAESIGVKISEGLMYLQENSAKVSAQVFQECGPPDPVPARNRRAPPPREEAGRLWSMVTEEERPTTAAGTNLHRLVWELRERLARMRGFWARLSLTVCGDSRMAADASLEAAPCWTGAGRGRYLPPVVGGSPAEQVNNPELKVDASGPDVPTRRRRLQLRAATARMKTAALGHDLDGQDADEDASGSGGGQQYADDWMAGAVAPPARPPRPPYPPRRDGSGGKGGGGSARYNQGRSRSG

human glypican-6 (GPC6) [6] = target: T9, human glypican-6 (GPC6) (human, UniProt Q9Y625 24-529, limits assumed); test: monoclonal phage ELISA on plate-coated glypicans
T9 construct: Named through 'human GPC1 through GPC6' in the methods; also called human GPC6; other human glypican members
T9 sequence (looked up): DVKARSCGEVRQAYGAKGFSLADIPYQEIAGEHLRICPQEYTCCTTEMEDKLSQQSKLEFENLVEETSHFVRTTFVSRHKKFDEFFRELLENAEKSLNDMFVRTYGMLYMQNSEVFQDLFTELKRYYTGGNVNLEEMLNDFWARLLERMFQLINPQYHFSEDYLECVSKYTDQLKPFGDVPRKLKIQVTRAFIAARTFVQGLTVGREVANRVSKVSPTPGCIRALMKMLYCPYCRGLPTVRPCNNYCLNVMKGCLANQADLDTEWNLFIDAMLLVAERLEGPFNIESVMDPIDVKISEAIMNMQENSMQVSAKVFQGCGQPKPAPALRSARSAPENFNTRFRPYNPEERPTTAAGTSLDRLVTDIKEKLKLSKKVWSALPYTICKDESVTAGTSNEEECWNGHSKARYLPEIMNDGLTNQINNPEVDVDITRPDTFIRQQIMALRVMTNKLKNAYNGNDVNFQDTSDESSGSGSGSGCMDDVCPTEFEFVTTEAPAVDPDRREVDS

human glypican-5 (GPC5) [7] = target: T10, human glypican-5 (GPC5) (human, UniProt P78333 25-551, limits assumed); test: monoclonal phage ELISA on plate-coated glypicans
T10 construct: Named through 'human GPC1 through GPC6' in the methods; also called human GPC5; other human glypican members
T10 sequence (looked up): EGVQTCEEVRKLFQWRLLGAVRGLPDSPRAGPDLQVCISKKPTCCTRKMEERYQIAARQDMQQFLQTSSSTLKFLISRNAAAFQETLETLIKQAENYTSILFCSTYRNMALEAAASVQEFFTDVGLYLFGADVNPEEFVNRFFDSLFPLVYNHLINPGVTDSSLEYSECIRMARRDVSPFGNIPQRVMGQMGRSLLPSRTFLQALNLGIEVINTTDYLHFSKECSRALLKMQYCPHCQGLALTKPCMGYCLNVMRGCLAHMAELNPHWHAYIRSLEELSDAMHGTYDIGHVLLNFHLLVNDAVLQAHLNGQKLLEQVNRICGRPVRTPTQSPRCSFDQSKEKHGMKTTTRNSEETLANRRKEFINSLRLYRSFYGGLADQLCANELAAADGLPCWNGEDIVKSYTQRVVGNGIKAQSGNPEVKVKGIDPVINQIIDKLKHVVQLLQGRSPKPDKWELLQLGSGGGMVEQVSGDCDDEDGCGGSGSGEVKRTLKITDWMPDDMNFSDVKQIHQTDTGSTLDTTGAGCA

[8] = target: T1, human GPC1 on cells (T3M4, KLM1, H8, 2B9) (human); test: cell-based or functional assay
His-tagged GPC1 protein = target: T11, His-tagged GPC1 protein (human, UniProt P35052 24-530, limits assumed); test: Octet (BLI), His-tagged GPC1 on Ni-NTA biosensor, HM2 in solution
T11 construct: Immobilised on a Ni-NTA biosensor for the Octet measurement of HM2; also called human GPC1; not shown: His tag
T11 sequence (looked up): T1 sequence (looked up)
Protocol: as §1

human glypican-4 (GPC4) [9] = target: T3, human glypican-4 (GPC4); test: ELISA, plate coated with human GPC4
Protocol: as §2

human glypican-3 (GPC3) [10] = target: T7, human glypican-3 (GPC3); test: ELISA on plate-coated human glypicans, goat anti-mouse IgG-HRP
human glypican-2 (GPC2) [11] = target: T8, human glypican-2 (GPC2); test: as above
human glypican-6 (GPC6) [12] = target: T9, human glypican-6 (GPC6); test: as above
human glypican-5 (GPC5) [13] = target: T10, human glypican-5 (GPC5); test: as above
GPC1 peptide 53 = target: T12, GPC1 peptide 53; test: ELISA on peptides of the GPC1 peptide library
T12 peptide: DGCLDDLCSRKVSRKSSS

## Neg ctrl (antibody)
[1]
  MFI: 7

B1: D4 camel single-domain antibody (VHH)
VHH: QVQLVESGGGLVQPGGSLRLSCVASGYSYSIGYMAWFRQAPGKERAWVASRYTGDGGAVFDDAVKGRFTTSQESAGNTFDLQMDSLKPEDTAMYYCAAKGPGFGRWEYWGRGTQVTVSS
notes: the methods describe D4 at 1 ug/ml detected with anti-FLAG; also called D4 antibody; D4 clone; not shown: FLAG and His tags (detected with anti-FLAG; 'His-tagged D4')
[2]
  Kd: 0.7 nM
Human glypican-4 (GPC4) [3]
  binding result: no binding (tested: 1 µg/ml)
GPC1 peptide 14
  binding result: binds
GPC1 peptide 15
  binding result: binds
Mouse GPC1 protein
  binding result: binds
Human glypican-3 (GPC3) [4]
  binding result: no binding (tested: 1 µg/ml (per paragraph 203; not on the sheet))
Human glypican-2 (GPC2) [5]
  binding result: no binding (tested: 1 µg/ml (per paragraph 203; not on the sheet))
Human glypican-6 (GPC6) [6]
  binding result: no binding (tested: 1 µg/ml (per paragraph 203; not on the sheet))
Human glypican-5 (GPC5) [7]
  binding result: no binding (tested: 1 µg/ml (per paragraph 203; not on the sheet))

B2: D4-IgG4 hinge-CD28 TM CAR (protein)
chain: HMQVQLVESGGGLVQPGGSLRLSCVASGYSYSIGYMAWFRQAPGKERAWVASRYTGDGGAVFDDAVKGRFTTSQESAGNTFDLQMDSLKPEDTAMYYCAAKGPGFGRWEYWGRGTQVTVSSTSESKYGPPCPPCPFWVLVVVGGVLACYSLLVTVAFIIFWVKRGRKKLLYIFKQPFMRPVQTTQEEDGCSCRFPEEEEGGCELRVKFSRSADAPAYQQGQNQLYNELNLGRREEYDVLDKRRGRDPEMGGKPRRKNPQEGLYNELQKDKMAEAYSEIGMKGERRRGKGHDGLYQGLSTATKDTYDALHMQALPPR
[8]
  cytolytic activity against T3M4 cells, difference to D4-IgG4 hinge-CD8 TM CAR T cells: 10%
  killing ability at high E:T ratio: 91.6%

B3: HM2 mouse monoclonal antibody (antibody, V domains shown)
VH: EVQLQQSGAELVRPGASVKLSCTASGFNIKDDYMHWVKQRPEQGLEWIGWIDPENGDTEYASKFQGKATITADTSSNTAYLQLSSLTSEDTAVYYCTRSSVGYWGQGTTLTVSS
VL: DVVMTQTPLSLPVSLGDQASISCRSSQSLVHSNGNTYLHWYLQKPGQSPKLLIYKVSNRFSGVPDRFSGSGSGTYFTLKISRVEAEDLGVYFCSQRTHVPYTFGGGTKLEIK
notes: Mouse monoclonal antibody (detected with goat anti-mouse IgG); also called HM2 mAb; HM2 clone
His-tagged GPC1 protein
  Kd: 0.4 nM
Human glypican-4 (GPC4) [9]
  binding result: no binding (tested: 1 µg/ml)
Human glypican-3 (GPC3) [10]
  binding result: no binding (tested: 1 µg/ml)
Human glypican-2 (GPC2) [11]
  binding result: no binding (tested: 1 µg/ml)
Human glypican-6 (GPC6) [12]
  binding result: no binding (tested: 1 µg/ml)
Human glypican-5 (GPC5) [13]
  binding result: no binding (tested: 1 µg/ml)
GPC1 peptide 53
  binding result: binds
